± gives the uncertainty stated by the source.
Experiment: protein stability index of a GFP-peptide fusion (yeast GPS) (PSI 1-4); higher = more stable; sorted into four equal gates, so the index is relative within each strain
Summary of the method: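 Plasmids in a pooled yeast library fused tiled 17-residue yeast protein peptides downstream of GFP and also expressed Cherry. Mid-log cultures grown without leucine were sorted into four equal gates by GFP/Cherry fluorescence ratio. Each gate's plasmids were PCR-amplified and Illumina-sequenced, and reads were matched to strains by barcodes. The protein stability index is derived by multiplying each gate's read frequency by its gate number and summing the results.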

| Sequence | protein stability index (doa10∆) | protein stability index (pdr5∆) | protein stability index (ubr1∆) | protein stability index (san1∆) |
| --- | --- | --- | --- | --- |
| VYTLACRSCPYEFPIEG [RPC11] | 1.22 ± 0.16 | 1.36 ± 0.15 | 1.54 ± 0.17 |  |
| LDSLMKTTRLLLIIRSL [YJL039C/NUP192] | 1.63 ± 0.044 | 1.39 ± 0.039 | 1.27 ± 0.04 | 1.32 ± 0.077 |
| DVTHTLGMLDDNKMDSV [SMC4] | 3.15 ± 0.095 | 3.03 ± 0.082 | 3.27 ± 0.097 | 3.21 ± 0.049 |
| ELIIDPLFKKALVDFDE [BRN1] | 3.45 ± 0.16 | 2.98 ± 0.14 | 3.29 ± 0.13 | 3.01 ± 0.24 |
| EYLKRVSVPVSGQKTNR [SIR3] | 2.54 ± 0.1 | 2.52 ± 0.087 | 2.83 ± 0.16 | 3.06 ± 0.13 |
| SIRLKVPPTIAQFQYTL [RPL8A] | 2.09 ± 0.047 | 2.36 ± 0.04 | 2.19 ± 0.035 | 1.93 ± 0.064 |
| VTSADSNLKISLVKYPE [SWI1] | 2.61 ± 0.067 | 2.72 ± 0.073 | 2.75 ± 0.05 | 2.52 ± 0.085 |
| RMLLNLCKSATTKMWPT [BRR2] | 1.47 ± 0.068 | 1.79 ± 0.1 | 1.99 ± 0.069 | 1.7 ± 0.12 |
| HTEDTVNESRNSDDIID [SRB5] | 2.31 ± 0.061 | 2.52 ± 0.056 | 2.46 ± 0.055 | 2.43 ± 0.071 |
| SLDFLNQSFIQQKANLL [COR1] |  | 1.77 ± 0.13 | 1.65 ± 0.079 |  |
| LPLNKPRLEKLINEILL [RGR1] | 2.53 ± 0.051 | 2.33 ± 0.041 | 2.48 ± 0.041 | 2 ± 0.077 |
| SDGQSRVKDIHLRKLLD [RET1] | 2.88 ± 0.061 | 2.98 ± 0.067 | 2.99 ± 0.043 | 3.11 ± 0.068 |
| SSTDIPSYTHVLISKLS [RRI1] | 2.13 ± 0.045 | 2.42 ± 0.048 | 2.35 ± 0.037 | 2.42 ± 0.049 |
| EDAIHIALLTLKESVEG [PRE8] | 2.94 ± 0.092 | 2.87 ± 0.085 | 2.92 ± 0.076 | 2.94 ± 0.069 |
| RSGSNAAASLPSKKLKT [RPC82] | 2.71 ± 0.068 | 2.91 ± 0.078 | 2.76 ± 0.033 | 2.71 ± 0.05 |
| IYDSEDPQQVFDERIKF [RPN3] | 3.05 ± 0.11 | 3.09 ± 0.089 | 2.89 ± 0.06 | 3.23 ± 0.08 |
| NNSNSNNNDNNNSNTVA [SWI1] | 2.95 ± 0.058 | 3.14 ± 0.051 | 3.13 ± 0.045 | 3.04 ± 0.042 |
| PIDNNIIFASTKLGFTF [SNU114] | 2.63 ± 0.05 | 2.52 ± 0.047 | 2.67 ± 0.035 | 2.38 ± 0.054 |
| LECQLFPQGLNIVMDSK [SSN8] | 1.74 ± 0.2 |  | 2.46 ± 0.19 |  |
| ILVDSLTGNQLPTPTPT [SWI1] | 2.73 ± 0.066 | 2.76 ± 0.073 | 2.73 ± 0.045 | 2.93 ± 0.048 |

| Sequence | protein stability index (doa10∆) | protein stability index (pdr5∆) | protein stability index (ubr1∆) | protein stability index (san1∆) |
| --- | --- | --- | --- | --- |
| RLNNVFVIGEQGKPYIS [RPS4A] | 2.66 ± 0.11 | 3.02 ± 0.094 | 2.12 ± 0.057 | 3.1 ± 0.11 |
| QRIAKNDPEYMDTSDDA [DLS1] | 3.01 ± 0.16 | 3.15 ± 0.12 | 3.01 ± 0.079 | 2.82 ± 0.15 |
| ETIKMKELDQELIIDPL [BRN1] | 2.98 ± 0.12 | 3.04 ± 0.15 | 3.01 ± 0.064 | 2.6 ± 0.26 |
| QNIMTLPDGKNGNLEEE [MED6] | 3.37 ± 0.064 | 3.23 ± 0.11 | 3.31 ± 0.091 | 3.37 ± 0.056 |
| VREYEQPDANKKKRSRT [ISW2] | 3.13 ± 0.14 | 3.31 ± 0.12 | 3.29 ± 0.11 | 3.25 ± 0.13 |
| LFKTLFKKLTKDIFRYM [RPB2] | 1.94 ± 0.061 | 1.53 ± 0.059 | 1.66 ± 0.055 | 1.33 ± 0.13 |
| QLFNWCLMRSLHKLELK [DSN1] | 1.17 ± 0.058 | 1.26 ± 0.059 | 1.19 ± 0.058 | 1.14 ± 0.13 |
| LRNKIAGYTTHLMKRIQ [RPS17A] | 2.44 ± 0.12 | 3.19 ± 0.13 | 2.99 ± 0.076 | 2.31 ± 0.12 |
| KVLINDQLSTISMILRN [SWI1] | 2.28 ± 0.047 | 2.79 ± 0.062 | 2.68 ± 0.042 | 2.17 ± 0.07 |
| GVATKDKFFTLSAENIE [SCL1] |  |  | 3.28 ± 0.25 |  |
| QVLLDEEYKQLVKDRKF [RPO21] | 3.07 ± 0.085 | 3.28 ± 0.06 | 2.82 ± 0.1 | 3.15 ± 0.14 |
| HEVVQDDSFSLLRIQML [PCI8] | 2.7 ± 0.049 | 2.96 ± 0.063 | 2.84 ± 0.036 | 2.74 ± 0.047 |
| IAATGLNQINGLNNDFL [GRR1] | 3.34 ± 0.17 | 3.26 ± 0.14 | 3.19 ± 0.12 | 3 ± 0.1 |
| AIFPYQDPIFGSVLLTL [ECM29] | 1.69 ± 0.045 | 1.84 ± 0.057 | 1.45 ± 0.044 | 1.29 ± 0.12 |
| DKQYRTAVATLLKELSK [SMC3] | 2.49 ± 0.082 | 2.13 ± 0.084 | 2.72 ± 0.071 | 3.06 ± 0.061 |
| SQHKKILEELDFVRNEL [SMC3] | 3.35 ± 0.14 | 3.09 ± 0.096 | 3.01 ± 0.057 | 3.2 ± 0.08 |
| YPDLQPFVLAENMWPFS [CDC53] | 1.68 ± 0.05 | 2.09 ± 0.044 | 1.71 ± 0.044 | 2.01 ± 0.055 |
| TKFFDDAKSTPLRLRLY [RPN9] | 3.26 ± 0.24 | 3.02 ± 0.15 | 2.89 ± 0.17 |  |
| PEKEASSATIVLCLTRS [YCG1] | 2.03 ± 0.06 | 2.5 ± 0.061 | 2.24 ± 0.046 | 2.1 ± 0.056 |
| AGKFPTPVSHNDDLYGK [RPL1A] | 2.26 ± 0.041 | 2.62 ± 0.056 | 2.45 ± 0.043 | 2.21 ± 0.057 |
